Data on one molecule can be found in patent publication US20090012270A1 (MEDICAL RESEARCH COUNCIL, published 2009).

In this assay the target is T1, mouse OX2 (mouse, UniProt O54901 31-278).
T1 construct: whole, on cells; also called ligand OX2 (mouse); normally expressed mouse OX2
T1 sequence (looked up): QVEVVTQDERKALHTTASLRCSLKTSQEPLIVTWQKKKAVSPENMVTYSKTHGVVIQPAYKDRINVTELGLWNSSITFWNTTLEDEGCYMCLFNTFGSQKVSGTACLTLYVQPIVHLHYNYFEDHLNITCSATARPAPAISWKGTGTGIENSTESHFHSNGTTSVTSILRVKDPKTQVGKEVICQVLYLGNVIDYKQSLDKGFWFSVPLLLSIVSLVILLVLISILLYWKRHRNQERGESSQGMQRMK
Kind of assay: immunoperoxidase staining of mouse spleen sections, detected with anti-human Fc. As for the experimental part: To determine function of OX2-OX2R interaction in vitro and in vivo, an adenovirus construct was prepared that produced in soluble form, the extracellular region of OX2RH1 fused to human IgG. A control construct was prepared that produced in soluble form, only the human IgG backbone. In the first instance, supernatants containing these fusion proteins were produced by cellular infection in vitro to test whether the OX2R fusion protein had biological function on the basis of binding to normally expressed mouse OX2. In the first series of studies, tissue sections of mouse spleen from normal as well as OX2-gene knockout (KO) mice, were prepared and OX2R, or control fusion proteins were added, and these reagents detected by addition of an antibody binding to the human Fc portion of the fusion protein, and subsequent immunoperoxidase staining procedures to reveal binding. Weak binding only of the OX2R fusion protein, and only in normal but not OX2 KO mice, was detected on follicular dendritic cells and endothelial cells. Both cell types are know to express very high levels of the ligand OX2.

B1: human IgG-mouse OX2RH1 fusion protein (extracellular region of OX2RH1 fused to human IgG) (Fc fusion)
chain: TDKNQTTQNNSSSPLTQVNTTVSVQIGTKALLCCFSIPLTKAVLITWIIKLRGLPSCTIAYKVDTKTNETSCLGRNITWASTPDHSPELQISAVTLQHEGTYTCETVTPEGNFEKNYDLQVLVPPEVTYFPEKNRSAVCEAMAGKPAAQISWSPDGDCVTTSESHSNGTVTVRSTCHWEQNNVSDVSCIVSHLTGNQSLSIELSRGGNQSLRP
notes: Soluble protein from cells infected with an adenovirus construct; also called OX2R fusion protein; Ig-OX2R fusion protein; not shown: human IgG backbone with the human Fc portion
In the case of B1, the binding result is reported as “binds”.
